Assay results as given in IntAct's records for PubMed 15637807.

B1: Caspase recruitment domain-containing protein 19 (Homo sapiens), Q96LW7 (parent)
chain: MTDQTYCDRLVQDTPFLTGHGRLSEQQVDRIILQLNRYYPQILTNKEAEKFRNPKASLRVRLCDLLSHLQRSGERDCQEFYRALYIHAQPLHSRLPSRHALRKFHITNHACLVLARGGHPSLPLMAWMSSMTTQVCCSPGLASPLASAPPQRPPSGPEGRVWQAQAVQMLVSVSHFLPLPPSLSHGSFHTAWGILYVHSCPSFSNLIPRGSLHVCVDSNLVPTAAWRS
partner: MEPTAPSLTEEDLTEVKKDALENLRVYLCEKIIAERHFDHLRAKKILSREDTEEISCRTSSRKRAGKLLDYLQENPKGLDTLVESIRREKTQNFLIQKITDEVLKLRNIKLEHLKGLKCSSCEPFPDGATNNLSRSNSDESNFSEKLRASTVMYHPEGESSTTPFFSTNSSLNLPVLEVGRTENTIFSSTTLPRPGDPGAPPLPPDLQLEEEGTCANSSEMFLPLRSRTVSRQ

Variants of: B1
Settings: with bcl10_human BCL10, O95999

Row | Variant | effect of a mutation on the interaction
1 | MTDQTYCDRLVQDTPFLTGHGRLSEQQVDRIILQLNRYYPQILTNKEAEKFRNPKASLRVRLCDALSHLQRSGERDCQEFYRALYIHAQPLHSRLPSRHALRKFHITNHACLVLARGGHPSLPLMAWMSSMTTQVCCSPGLASPLASAPPQRPPSGPEGRVWQAQAVQMLVSVSHFLPLPPSLSHGSFHTAWGILYVHSCPSFSNLIPRGSLHVCVDSNLVPTAAWRS [L65A] | disrupting interaction
